From US20100041597A1, “PEPTIDES TARGETED TO PROTEIN KINASE C ISOFORMS AND USES THEREOF” (priority 2005, published 2010)

Legend:
PKC-α = PKC-α (Homo sapiens, UniProt P17252); test: ELISA-based competitive binding assay with purified PKC isoform; set-up: key to Affinity for PKC isoform α: —: no detectable affinity; Low to very low affinity at 10X or 20X or both PRE concentrations in at least one cell line in the cell extract assay; Low affinity in purified isoform assay.; Moderate affinity at 10X or 20X or both PRE concentrations in at least one cell line in the cell extract assay.; High affinity at 10X or 20X or both PRE concentrations in at least one cell line in the cell extract assay; High affinity in purified isoform assay; details: for inhibition at 50 µM / inhibition at 100 µM / inhibition at 200 µM / calculated binding capacity (100-% n) after subtraction of the DMSO apparent binding capacity: purified PKC-α; for inhibition at 50 µM / inhibition at 100 µM / inhibition at 200 µM: read-out: calculated binding capacity (100-% n) after subtraction of the DMSO apparent binding capacity; for Affinity for PKC isoform α: Purified isoform, Table 20; for targeting of PKC-α: purified isoform, Tables 14-19; for isoform specificity: purified isoforms α, βI, βII, δ, ε, ζ compared
Description: Peptides PRE 1, 2, 3, 4, 5, 6, 7, 8, 9, 10, 11, 12 and 13 (see Table 3) were tested for their ability to interfere with binding of PKC isoform-specific antibodies to their target PKC isoforms using a competitive binding assay and purified PKC isoforms.
Procedure: Competitive binding was assessed using a 96 well plate ELISA-based assay as described below.
Greiner 96 well ELISA plates were coated with the appropriate PKC isoform diluted in PBSN (PBS with Calcium/Magnesium+0.05% Sodium azide w/w). 50 μL/well at 250 ng/mL was used. Control wells contained PBSN only. Plates were incubated overnight at 4° C.
The plates were washed 3 times with 200 μL of dH2O per well, then 100 μL of blocking solution was added per well and the plate incubated for 1 h at 37° C. The washing steps with dH2O were repeated and 50 μL of the appropriate PRE solution (PRE stock solution [20 mM in DMSO] diluted in PBSN) was added and the plate incubated for 1 h at room temperature.
After incubation, 5 μL of 1.1:400 anti-PKC (isoform specific antibody) was added per well (to provide a final concentration of 1:4000). For PKC-epsilon, 1.1:800 dilution was used and for PKC-zeta a 1.1:100 dilution was used due to high and low binding affinity, respectively. The plates were then incubated 1 h at room temperature, followed by washing with dH2O as described above.
50 μL of 1:1000 dilution of Alkaline Phosphatase (AP) conjugated antibody (anti-rabbit for all except zeta, which was anti-goat) was then added and the plate incubated for 1 h at room temperature. Washing with dH2O was then repeated. Finally, 100 μL of pNPP solution in pNPP buffer (2 mM MgCl2, 100 mM Sodium bicarbonate in water, pH 9.8) was added to all wells and incubated for 8 minutes for α, βI, βII ε, and ζ, or for 15-20 mins for […] (until sufficient coloration is observed). The reaction was stopped by addition of Stop solution (2N NaOH) and the absorbance at 405 nm was read on a Galaxy Plate reader.
Controls were PKC without PRE; blank controls, and controls containing the final concentrations of DMSO used for solubilizing the PREs. The non-specific binding capacity related to DMSO was also measured.
The antibodies used were as follows: anti-PKC α (Cat. No. SC-208); anti-PKC βI (Cat. No. SC-209); anti-PKC βII (Cat. No. SC-210); anti-PKC δ (Cat. No. SC-213); anti-PKC ε (Cat. No. SC-214); anti-PKC ζ (Cat. No. SC-216-G) (all from Santa Cruz Biotechnology, Inc.). The AP-conjugated antibodies were obtained from Jackson Immuno Research Laboratories (West Grove, Pa.).
Calculations: The OD values measured at 405 nm represent the free PKC coated per well.
OD405 PKC alone−Blank OD405 of each sample=OD405 coated isoform
(OD405 of sample X/OD405 coated isoform)×100=% n that represents the percentage of X binding compared to control.
100-% n measures the relative binding capacity of X towards the tested isoform.
The apparent binding capacity of the DMSO samples was then subtracted from X binding capacity.
All measurements were made in triplicate and the values in the table represent the averaged calculated binding capacity values after subtraction of the DMSO apparent binding capacity (averaged from 12 values, respectively 10.80, 11.20 and 16.40 corresponding to the concentrations of DMSO used to dilute the […] at 200, 100 and 50 μM respectively). The results allow for quantitative comparison of the binding capacity of each PRE towards an individual isoform within each table, but not among isoforms due to differences in sensitivity of the specific antibodies toward the secondary antibody. This applies particularly to PKC-delta. As noted above, the colour development duration was increased 2-3 times and, as a result, the OD405 measurements may be overestimated for this isoform.

PKC-δ = PKC-δ (Homo sapiens, UniProt Q05655); test: Competitive binding assay using cell extracts (Western blot); set-up: cytoplasmic extracts from different cell lines expressing appropriate PKC isoforms; endogenous in cells; host or cells: H661, MDAMB231, LS180, T24 (human, from ATCC); key to Affinity for PKC isoform δ: —: no detectable affinity; Low to very low affinity at 10X or 20X or both PRE concentrations in at least one cell line in the cell extract assay; Low affinity in purified isoform assay.; Moderate affinity at 10X or 20X or both PRE concentrations in at least one cell line in the cell extract assay.; High affinity at 10X or 20X or both PRE concentrations in at least one cell line in the cell extract assay; High affinity in purified isoform assay; details: for Affinity for PKC isoform δ: Cell extract, PRE at 10X, 20X antibody concentration, Table 20
Sequence of PKC-δ (Q05655 whole entry, canonical isoform): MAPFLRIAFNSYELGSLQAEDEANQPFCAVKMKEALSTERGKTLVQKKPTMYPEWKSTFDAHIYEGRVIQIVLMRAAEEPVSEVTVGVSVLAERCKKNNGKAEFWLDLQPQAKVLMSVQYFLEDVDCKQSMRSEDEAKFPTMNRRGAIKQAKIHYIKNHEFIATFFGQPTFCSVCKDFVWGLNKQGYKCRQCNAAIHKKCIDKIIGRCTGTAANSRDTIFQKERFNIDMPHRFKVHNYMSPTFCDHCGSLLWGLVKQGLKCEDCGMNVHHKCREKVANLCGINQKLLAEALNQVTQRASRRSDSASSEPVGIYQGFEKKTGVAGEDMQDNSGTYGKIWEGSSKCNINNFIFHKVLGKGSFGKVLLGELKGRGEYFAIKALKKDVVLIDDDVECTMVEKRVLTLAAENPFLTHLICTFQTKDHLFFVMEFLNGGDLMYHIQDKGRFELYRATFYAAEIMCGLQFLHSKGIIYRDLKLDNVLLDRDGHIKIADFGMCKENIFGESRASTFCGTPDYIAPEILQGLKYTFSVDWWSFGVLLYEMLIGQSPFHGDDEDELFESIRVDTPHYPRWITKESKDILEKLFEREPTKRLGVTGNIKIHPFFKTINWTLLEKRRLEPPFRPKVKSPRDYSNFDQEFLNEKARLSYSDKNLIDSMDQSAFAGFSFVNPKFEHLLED
Description: Binding efficiency and specificity of the peptides PRE 2, 3, 4, 5, 6, 7, 8, 9, 10, 11, 12 and 13 (see Table 3) was also tested using cytoplasmic extracts from different cell lines expressing appropriate PKC isoforms as described for Example 1. Briefly, the protein cytoplasmic extracts were separated by electrophoresis and transferred onto nitrocellulose membranes by standard Western blotting procedures. The bands on the Western blots were detected with matching primary antibodies and alkaline phosphatase conjugated secondary antibody. The bands were then scanned and the relative density measurements obtained.
This procedure to assess the binding characteristics of the PREs is based on competition binding of the PRE with the primary anti-isoform PKC specific antibodies. The lower the measured band density, the greater the binding of the PRE to the PKC isoform. The PREs were added at 10 and 20 times (10×, 20×) the primary antibody concentration, according to classical competition between antigenic peptide and primary antibody. The following cell lines (obtained from the ATCC) were used: H661—NCI human lung carcinoma NSCLC; MDAMB231—human highly invasive breast cancer cell line from pleural effusion; LS180—human colon adenocarcinoma; LnCAP—human prostate adenocarcinoma; CCD16Lu—human lung fibroblasts; Du145—human prostate carcinoma brain metastasis, and T24—human bladder carcinoma.
In these cases, the 20× band density figures relative to control and 10× values were reliable.

| Substance | Affinity for PKC isoform α (PKC-α) | Affinity for PKC isoform δ (PKC-δ) | other results |
| --- | --- | --- | --- |
| Ac-AKGIQEVKGGDAQNLIGISI-NH2 [PRE 3] | H | H | inhibition at 50 µM (PKC-α; PRE 50 μM): 17.5%; inhibition at 100 µM (PKC-α; PRE 100 μM): 26.5%; inhibition at 200 µM (PKC-α; PRE 200 μM): 22.6%; targeting of PKC-α (PKC-α): targeted most strongly; isoform specificity (PKC-α): “universal” PKC targeting peptide, with the exception of the PKC-βII isoform |
| Ac-AKGIQEVKGGKDAQNLIGISI-NH2 [PRE 5] | — | — | inhibition at 50 µM (PKC-α; PRE 50 μM): 0%; inhibition at 100 µM (PKC-α; PRE 100 μM): 0%; inhibition at 200 µM (PKC-α; PRE 200 μM): 0% |
| Ac-ISIGILNQADK-NH2 [PRE 10] | — | H |  |
| Ac-ISIGILQNADK-NH2 [PRE 7] | L | L |  |
| Ac-KDANQLIGISI-NH2 [PRE 6] | — | M/H |  |
| Ac-KDAQNLI-NH2 [PRE 12] | — | — |  |
| Ac-KDAQNLIGISI-NH2 [PRE 4, Ac-KDAQNLIGISI-NH2] | H | — | inhibition at 50 µM (PKC-α; PRE 50 μM): 6.46%; inhibition at 100 µM (PKC-α; PRE 100 μM): 21.9%; inhibition at 200 µM (PKC-α; PRE 200 μM): 22.8%; targeting of PKC-α (PKC-α): targeted most strongly; isoform specificity (PKC-α): specificity for PKC-A; affinity for PKC-δ (PKC-δ; cell extracts): none for PKC-6 |
| Ac-RDAQNLI-NH2 [PRE 13] | — | — |  |
| Ac-RDAQNLIGISI-NH2 [PRE 11] | L | — |  |
| Ac-isigilgnadk-NH2 [PRE 9] | — | H | calculated binding capacity (100-% n) after subtraction of the DMSO apparent binding capacity (PKC-α; PRE 100 μM): 5.35 |
| ILEDKGGDAQNLIGISI [PRE 8] | — | L |  |
| RRKKGGKDFVVKR [PRE 1] | — | — | calculated binding capacity (100-% n) after subtraction of the DMSO apparent binding capacity (PKC-α; PRE 50 μM): 0.69; calculated binding capacity (100-% n) after subtraction of the DMSO apparent binding capacity (PKC-α; PRE 200 μM): 2.10 |
